From patent US20210285024

Assays:
[1] = test system: 8 amino acid peptide GEEEGEEY (last C-ter alpha-tubulin 1A/1B)
[2] = test system: bacterially produced recombinant human tubulin alpha-1A chain
[3] = test system: polymerized microtubules (MT)
[4] = test system: recombinant alpha tubulin produced in bacteria
[5] = test system: recombinant engineered tyrosinated telokin containing the C-terminal sequence of alpha tubulin
[6] = test system: tubulin dimers (TD)
[7] = test system: tubulin purified from Spodoptera Frugiperda Sf9 cells (fully tyrosinated; used as purified tubulin or polymerised microtubules)

Sequence of recombinant human Vasohibin-2 (VASH2) (chain, as listed by the source): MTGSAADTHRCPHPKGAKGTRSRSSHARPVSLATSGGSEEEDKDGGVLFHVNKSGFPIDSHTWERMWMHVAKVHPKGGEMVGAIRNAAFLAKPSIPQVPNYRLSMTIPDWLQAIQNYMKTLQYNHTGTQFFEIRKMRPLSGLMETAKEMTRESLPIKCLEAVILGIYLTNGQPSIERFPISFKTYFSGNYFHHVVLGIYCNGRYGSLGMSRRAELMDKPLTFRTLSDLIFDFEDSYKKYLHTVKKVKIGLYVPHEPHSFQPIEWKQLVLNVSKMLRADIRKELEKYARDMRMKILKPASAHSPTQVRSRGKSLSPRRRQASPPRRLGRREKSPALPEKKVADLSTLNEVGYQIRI
Sequence of recombinant human Vasohibin-1 (VASH1) (chain, as listed by the source): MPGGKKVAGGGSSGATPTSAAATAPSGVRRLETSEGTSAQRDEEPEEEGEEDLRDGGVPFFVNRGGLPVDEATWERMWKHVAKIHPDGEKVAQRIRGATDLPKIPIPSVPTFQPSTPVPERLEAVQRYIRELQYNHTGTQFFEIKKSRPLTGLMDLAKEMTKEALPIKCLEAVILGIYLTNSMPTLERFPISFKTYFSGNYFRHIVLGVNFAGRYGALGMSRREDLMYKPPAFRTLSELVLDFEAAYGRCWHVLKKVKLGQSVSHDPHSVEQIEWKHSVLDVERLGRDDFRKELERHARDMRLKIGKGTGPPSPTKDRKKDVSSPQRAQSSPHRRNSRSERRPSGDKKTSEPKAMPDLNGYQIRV
Sequence of recombinant engineered tyrosinated telokin containing the C-terminal sequence of alpha tubulin (chain, as listed by the source, change not shown): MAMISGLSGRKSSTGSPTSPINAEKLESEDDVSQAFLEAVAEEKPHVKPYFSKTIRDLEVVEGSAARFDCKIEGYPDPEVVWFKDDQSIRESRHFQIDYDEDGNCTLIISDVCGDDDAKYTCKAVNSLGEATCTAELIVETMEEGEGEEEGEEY

Substance	detyrosination of the peptide (dot blot) [1]	free tyrosine release (tyrosinase colorimetric assay, OD305) [2]	detyrosination [3]	detyrosination [4]	detyrosination activity [5]	detyrosination [6]	in vitro detyrosination assay (TCPase activity, immunoblot) [7]
recombinant human Vasohibin-2 (VASH2)	Recombinant human VASH2 and catalytically dead (VASH2D) produced in bacteria detyrosinates a 8 amino acid peptide consisting of GEEEGEEY	Release of tyrosine by VASH2 could be observed (Sample D-FIG. 16.)	Recombinant human VASH2 produced in bacteria detyrosinates polymerized microtubules (MT), tubulin dimers (TD) and recombinant alpha tubulin	Recombinant human VASH2 produced in bacteria detyrosinates polymerized microtubules (MT), tubulin dimers (TD) and recombinant alpha tubulin	recombinant VASH2 protein showed detyrosination activity on polymerized microtubule, tubulin dimers, recombinant alpha tubulin, engineered Telokin protein containing C-terminal sequence of alpha tubulin and on synthetic peptides	Recombinant human VASH2 produced in bacteria detyrosinates polymerized microtubules (MT), tubulin dimers (TD) and recombinant alpha tubulin	VASH2 acted as an autonomous enzyme that did not require the small vasohibin binding protein as a chaperone to enzymatically be active
recombinant human Vasohibin-1 (VASH1)			VASH1 was much less effective on microtubules and tubulin dimers	almost inactive on recombinant alpha tubulin produced in bacteria		VASH1 was much less effective on microtubules and tubulin dimers	
